Source: patent publication US20240018502
Numbering of substitutions follows the chain as printed. Names and notes keep the numbering of the source.

B1: Modified MTSP-1 protease domain Q38H/I41S/D60bT/F60eS/Y60gW/D96K/F97G/ins97aV/T98P/F99L/C122S/G151H/Q175L/Q192D (protein)
chain: VVGGTDADEGEWPWQVSLHALGHGHSCGASLISPNWLVSAAHCYIDTRGSRWSDPTQWTAFLGLHDQSQRSAPGVQERRLKRIISHPFFNKGVPLDYDIALLELEKPAEYSSMVRPISLPDASHVFPAGKAIWVTGWGHTQYGGTHALILQKGEIRVINQTTCENLLPQLITPRMMCVGFLSGGVDSCDGDSGGPLSSVEADGRIFQAGVVSWGDGCAQRNKPGVYTRLPLFRDWIKENTGV
B2: Q38H/I41S/D60bT/F60eS/Y60gW/D96L/F97D/ins97aG/T98N/F99L/C122S/G151H/Q175L/Q192E (protein)
chain: B1 chain with K91L, G92D, V93G, P94N, D189E
B3: Q38H/I41S/D60bT/F60eS/Y60gW/D96V/F97G/ins97aV/T98P/F99L/C122S/G151H/Q175L/Q192D (protein)
chain: B1 chain with K91V
B4: Q38H/I41A/D60bT/F60eK/Y60gW/F97T/ins97aE/T98G/F99L/C122S/G151N/Q175L/Q192D (protein)
chain: B1 chain with S26A, S50K, K91D, G92T, V93E, P94G, H146N
B5: Q38H/I41S/D60bT/F60eS/Y60gW/D96K/F97D/ins97aA/T98P/F99L/C122S/G151H/Q175L/Q192D (protein)
chain: B1 chain with G92D, V93A
B6: Q38H/I41S/D60bT/F60eS/Y60gW/D96Y/F97E/ins97aV/T98G/F99L/C122S/G151H/Q175L/Q192D (protein)
chain: B1 chain with K91Y, G92E, P94G
B7: Q38H/I41S/D60bT/F60eS/Y60gW/D96K/F97D/ins97aA/T98P/F99L/C122S/G151N/Q175L/Q192D (protein)
chain: B1 chain with G92D, V93A, H146N
B8: Q38H/I41S/D60bT/F60eS/Y60gW/F97D/ins97aV/T98P/F99L/C122S/G151H/Q175L/Q192E (protein)
chain: B1 chain with K91D, G92D, D189E
B9: Q38H/I41A/D60bV/F60eR/Y60gW/F97T/ins97aE/T98G/F99L/C122S/G151N/Q175L/Q192D (protein)
chain: B1 chain with S26A, T47V, S50R, K91D, G92T, V93E, P94G, H146N
B10: Q38H/I41S/D60bT/F60eS/Y60gW/D96K/F97G/ins97aV/T98P/F99L/C122S/G151H/Q175L/Q192D (protein)
chain: B1 chain
B11: Q38H/I41A/D60bV/F60eR/Y60gW/D96I/F97Y/ins97aN/T98G/F99L/C122S/G151N/Q175L/Q192D (protein)
chain: B1 chain with S26A, T47V, S50R, K91I, G92Y, V93N, P94G, H146N
B12: Q38H/I41A/D60bV/F60eR/Y60gW/F97T/ins97aE/T98G/F99L/C122S/G151H/Q175L/Q192D (protein)
chain: B1 chain with S26A, T47V, S50R, K91D, G92T, V93E, P94G
B13: Q38H/I41S/D60bT/F60eS/Y60gW/F97D/ins97aV/T98P/F99L/C122S/G151N/Q175L/Q192D (protein)
chain: B1 chain with K91D, G92D, H146N
B14: Q38H/I41S/D60bT/F60eS/Y60gW/F97D/ins97aV/T98P/F99L/C122S/G151H/Q175L/Q192D (protein)
chain: B1 chain with K91D, G92D
B15: Q38H/I41A/D60bV/F60eR/Y60gW/D96P/F97W/ins97aN/T98G/F99L/C122S/G151N/Q175L/Q192E (protein)
chain: B1 chain with S26A, T47V, S50R, K91P, G92W, V93N, P94G, H146N, D189E
B16: Q38H/I41A/D60bT/F60eK/Y60gW/F97T/ins97aE/T98G/F99L/C122S/G151H/Q175L/Q192D (protein)
chain: B1 chain with S26A, S50K, K91D, G92T, V93E, P94G
B17: I41R/F97T/Ins97aE/T98G/F99L/C122S/G151N/Q175L/Q192E (protein)
chain: VVGGTDADEGEWPWQVSLHALGQGHRCGASLISPNWLVSAAHCYIDDRGFRYSDPTQWTAFLGLHDQSQRSAPGVQERRLKRIISHPFFNDTEGLDYDIALLELEKPAEYSSMVRPISLPDASHVFPAGKAIWVTGWGHTQYGGTNALILQKGEIRVINQTTCENLLPQLITPRMMCVGFLSGGVDSCEGDSGGPLSSVEADGRIFQAGVVSWGDGCAQRNKPGVYTRLPLFRDWIKENTGV
B18: Q38H/I41A/D60bV/F60eR/Y60gW/D96I/F97N/T98G/F99L/C122S/G151N/Q175L/Q192D (protein)
chain: VVGGTDADEGEWPWQVSLHALGHGHACGASLISPNWLVSAAHCYIDVRGRRWSDPTQWTAFLGLHDQSQRSAPGVQERRLKRIISHPFFNINGLDYDIALLELEKPAEYSSMVRPISLPDASHVFPAGKAIWVTGWGHTQYGGTNALILQKGEIRVINQTTCENLLPQLITPRMMCVGFLSGGVDSCDGDSGGPLSSVEADGRIFQAGVVSWGDGCAQRNKPGVYTRLPLFRDWIKENTGV
B19: Wild-type MTSP-1 protease domain with C122S (protein)
chain: VVGGTDADEGEWPWQVSLHALGQGHICGASLISPNWLVSAAHCYIDDRGFRYSDPTQWTAFLGLHDQSQRSAPGVQERRLKRIISHPFFNDFTFDYDIALLELEKPAEYSSMVRPISLPDASHVFPAGKAIWVTGWGHTQYGGTGALILQKGEIRVINQTTCENLLPQQITPRMMCVGFLSGGVDSCQGDSGGPLSSVEADGRIFQAGVVSWGDGCAQRNKPGVYTRLPLFRDWIKENTGV

Assays:
[1] = target: human complement protein C3
[2] = target: cynomolgus monkey complement protein C3 (endogenous, in vitreous humor)
[3] = target: T1, quenched fluorescence peptidic substrate containing SKGR/SL (P4-P2' of the PAR-2 activation cleavage site, Ser 33 to Leu 38)
T1 chain: SKGRSL

[4] = target: complement protein C3 of cynomolgus monkey plasma

| Protein | ED50 80% human plasma (60 min, nM), C3 cleavage [1] [nM] | SKGR/SL kcat/Km [3] [M⁻¹ s⁻¹] | ED50 80% cynomolgus plasma (nM), C3 cleavage, C3 ELISA [4] [nM] | also measured |
| --- | --- | --- | --- | --- |
| B1 | – | – | – | ED50 of cleavage of human C3 [1]: cleaves human C3 in the assay described herein with an ED50 of 2 nM; anti-C3 activity, fold increase owed to D60bT (against the variant with this residue reverted to wild type) [1]: D60bT-This mutation increases anti-C3 activity by approximately 2.8-fold; anti-C3 activity, fold increase owed to D96K (against the variant with this residue reverted to wild type) [1]: D96K-This mutation increases anti-C3 activity by approximately 2.6-fold; anti-C3 activity, fold increase owed to F60eS (against the variant with this residue reverted to wild type) [1]: F60eS-This mutation increases anti-C3 activity by approximately 1.9-fold; anti-C3 activity, fold increase owed to F97G (against the variant with this residue reverted to wild type) [1]: F97G-This mutation increases anti-C3 activity by approximately 4.3-fold and increases substrate specificity; anti-C3 activity, fold increase owed to F99L (against the variant with this residue reverted to wild type) [1]: F99L: This mutation increases anti-C3 activity by approximately 3.9-fold; anti-C3 activity, fold increase owed to G151H (against the variant with this residue reverted to wild type) [1]: G151H: This mutation increases anti-C3 activity by approximately 1.2-fold; anti-C3 activity, fold increase owed to I41S (against the variant with this residue reverted to wild type) [1]: I41S-This mutation increases anti-C3 activity by approximately 44.6-fold; anti-C3 activity, fold increase owed to Q38H (against the variant with this residue reverted to wild type) [1]: Q38H-This mutation increases C3 activity by approximately 3.7-fold; anti-C3 activity, fold increase owed to Q175L (against the variant with this residue reverted to wild type) [1]: Q175L: This mutation increases anti-C3 activity by approximately 4.3-fold; anti-C3 activity, fold increase owed to T98P (against the variant with this residue reverted to wild type) [1]: T98P: This mutation ... increases anti-C3 activity by approximately 2.2-fold; anti-C3 activity, fold increase owed to Y60gW (against the variant with this residue reverted to wild type) [1]: Y60gW-This mutation increases the enzyme's substrate specificity and increases anti-C3 activity by approximately 4.8-fold; anti-C3 activity, fold increase owed to the insertion 97aV (against the variant without the insertion) [1]: Insert 97aV: This mutation ... increases anti-C3 activity by approximately 1.7-fold; reduction of hemolytic activity (C3H50) after preincubation of C3 with the variant [1]: reduces the hemolytic activity of the serum by approximately 80%; C3 levels in vitreous humor by ELISA after one intravitreal dose of 125 ug [2]: C3 was undetectable in the variant-treated eye 1, 2, 6, and 7 days after the single injection of the anti-C3 MTSP polypeptide |
| B2 | 39 | 1300 | 70 | – |
| B3 | 27 | 4990 | 103 | – |
| B4 | 65 | 245 | 195 | – |
| B5 | 34 | 4030 | 85 | – |
| B6 | 38 | 865 | 133 | – |
| B7 | 44 | 2060 | 37 | – |
| B8 | 50 | 959 | 76 | – |
| B9 | 52 | 925 | 101 | – |
| B10 | 25 | 6210 | 92 | C3H50 Hemolytic Activity (U/mL), C3-depleted serum plus purified C3; Test Condition #1 (C3 and 8 nM test article incubated separately, no pre-cleavage) [1]: 470 U/mL; C3H50 Hemolytic Activity (U/mL), C3-depleted serum plus purified C3; Test Condition #1 (C3 and 40 nM test article incubated separately, no pre-cleavage) [1]: 594 U/mL; C3H50 Hemolytic Activity (U/mL), C3-depleted serum plus purified C3; Test Condition #1 (C3 and 200 nM test article incubated separately, no pre-cleavage) [1]: 438 U/mL; C3H50 Hemolytic Activity (U/mL), C3-depleted serum plus purified C3; Test Condition #2 (C3 pre-incubated 2 h at 37 C with 8 nM test article) [1]: 295 U/mL; C3H50 Hemolytic Activity (U/mL), C3-depleted serum plus purified C3; Test Condition #2 (C3 pre-incubated 2 h at 37 C with 40 nM test article) [1]: 97.9 U/mL; C3H50 Hemolytic Activity (U/mL), C3-depleted serum plus purified C3; Test Condition #2 (C3 pre-incubated 2 h at 37 C with 200 nM test article) [1]: 73.7 U/mL; CH50 hemolytic activity (U/mL), human citrated plasma after 1 h at 37 C with 3.2 nM test article [1]: 73 U/mL; CH50 hemolytic activity (U/mL), human citrated plasma after 1 h at 37 C with 16 nM test article [1]: 69 U/mL; CH50 hemolytic activity (U/mL), human citrated plasma after 1 h at 37 C with 80 nM test article [1]: 41.5 U/mL; CH50 hemolytic activity (U/mL), human citrated plasma after 1 h at 37 C with 400 nM test article [1]: 10.8 U/mL; CH50 hemolytic activity (U/mL), human citrated plasma after 1 h at 37 C with 2000 nM test article [1]: 5.56 U/mL |
| B11 | 27 | 2320 | 37 | – |
| B12 | 32 | 1360 | 133 | – |
| B13 | 41 | 1730 | 118 | – |
| B14 | 50 | 1730 | 152 | – |
| B15 | 47 | 1620 | 73 | – |
| B16 | 38 | 742 | 136 | – |
| B17 | 835 | < 100 | 2200 | – |
| B18 | 24 | 3560 | 58 | – |
| B19 | 3500 | 200000 | 2800 | ED50 of cleavage of human C3 [1]: compared to 11 nM for the wild-type protease domain of SEQ ID NO:4 |
